Results published in patent US20200392198A1 (UNIVERSITY OF COPENHAGEN, published 2020).
Like-named read-outs stand apart in the source and are kept apart here. Ends that are not written are not given here. * marks the point of attachment. Palmitoyl = CCCCCCCCCCCCCCCC(=O)*

How the values were obtained:
Test in all cases: cell-based or functional assay
human GLP-2 receptor [1] = target: T1, human GLP-2 receptor (human, UniProt O95838 1-553)
T1 sequence (looked up): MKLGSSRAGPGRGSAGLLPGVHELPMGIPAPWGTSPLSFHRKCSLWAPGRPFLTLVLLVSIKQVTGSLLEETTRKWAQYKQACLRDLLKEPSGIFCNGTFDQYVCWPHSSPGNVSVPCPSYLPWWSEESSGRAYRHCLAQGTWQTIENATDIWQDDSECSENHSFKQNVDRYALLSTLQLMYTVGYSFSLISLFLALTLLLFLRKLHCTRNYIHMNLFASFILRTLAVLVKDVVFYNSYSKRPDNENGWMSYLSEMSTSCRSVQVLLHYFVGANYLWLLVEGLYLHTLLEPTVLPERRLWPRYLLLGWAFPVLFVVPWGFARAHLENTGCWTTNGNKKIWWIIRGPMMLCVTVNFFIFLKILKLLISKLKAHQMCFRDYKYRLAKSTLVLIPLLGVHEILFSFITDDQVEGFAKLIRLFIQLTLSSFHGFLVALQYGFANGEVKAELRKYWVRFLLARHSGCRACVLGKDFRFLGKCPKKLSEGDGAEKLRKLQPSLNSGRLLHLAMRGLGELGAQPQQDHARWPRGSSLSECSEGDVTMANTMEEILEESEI

human GIP receptor [2] = target: T2, human GIP receptor (human, UniProt P48546 22-466)
T2 sequence (looked up): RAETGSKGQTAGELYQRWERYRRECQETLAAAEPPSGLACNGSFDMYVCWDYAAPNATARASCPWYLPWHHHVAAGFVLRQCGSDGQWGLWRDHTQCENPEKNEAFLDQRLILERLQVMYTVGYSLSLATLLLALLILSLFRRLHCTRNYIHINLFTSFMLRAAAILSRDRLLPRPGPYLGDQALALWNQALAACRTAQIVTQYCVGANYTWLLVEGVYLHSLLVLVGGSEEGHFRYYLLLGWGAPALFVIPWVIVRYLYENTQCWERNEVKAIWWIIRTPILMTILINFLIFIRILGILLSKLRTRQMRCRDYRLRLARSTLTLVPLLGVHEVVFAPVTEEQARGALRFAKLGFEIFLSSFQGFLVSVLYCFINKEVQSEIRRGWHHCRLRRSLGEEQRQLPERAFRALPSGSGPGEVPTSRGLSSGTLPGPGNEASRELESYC

human GLP-2 receptor [3] = target: T1, human GLP-2 receptor; remark: listed apart in the source
human GIP receptor [4] = target: T2, human GIP receptor; remark: listed apart in the source

Binder | EC50 (cAMP) (human GLP-2 receptor [1]) [nM] | Emax (1 µM), % of native GLP-2 (human GLP-2 receptor [1]) [%] | fold (EC50 vs native GLP-2) (human GLP-2 receptor [1]) [fold] | logEC50 (cAMP) (human GLP-2 receptor [1]) | EC50 (cAMP) (human GIP receptor [2]) [nM] | Emax (1 µM), % of native GIP (human GIP receptor [2]) [%] | fold (EC50 vs native GIP) (human GIP receptor [2]) [fold] | logEC50 (cAMP) (human GIP receptor [2]) | EC50 (cAMP) (human GLP-2 receptor [3]) [nM] | Emax (10 µM), % of native GLP-2 (human GLP-2 receptor [3]) [%] | fold (EC50 vs native GLP-2) (human GLP-2 receptor [3]) [fold] | logEC50 (cAMP) (human GLP-2 receptor [3]) | EC50 (cAMP) (human GIP receptor [4]) [nM] | Emax (10 µM), % of native GIP (human GIP receptor [4]) [%] | fold (EC50 vs native GIP) (human GIP receptor [4]) [fold] | logEC50 (cAMP) (human GIP receptor [4]) | Emax (10 µM), % of native GLP-2 (human GLP-2 receptor [1]) [%] | Emax (10 µM), % of native GIP (human GIP receptor [2]) [%]
HAEGTFISDYSTILDNLAARDFINWLIQTKITDNDWKHNITQ [GIP-GLP-2 co-agonist 2] | 145 | 93 | 121 | -6.84 | 12 | 100 | 135 | -7.92 | – | – | – | – | – | – | – | – | – | –
HADGTFSSDYSTILDNLAAK(Palmitoyl)DFINWLIQTKITD [GIP-GLP-2 co-agonist 21] | – | – | – | – | – | – | – | – | 6 | 75 | 5 | -8.22 | 34 | 94 | 381 | -7.47 | – | –
HVDGTFISDYSTILDNLAARDFINWLIQTKITD [GIP-GLP-2 co-agonist 12] | 25 | – | 21 | -7.6 | 1.1 | – | 12 | -8.96 | – | – | – | – | – | – | – | – | 81 | 96
HADGTFISDYSTILDNLAARDFINWLIQTKIKD [GIP-GLP-2 co-agonist 17] | 25 | – | 21 | -7.61 | 0.4 | – | 4.5 | -9.39 | – | – | – | – | – | – | – | – | 88 | 95
HGDGTFISDYSTILDNLAARDFINWLIQTKITD [GIP-GLP-2 co-agonist 11] | 24 | – | 20 | -7.62 | 3.2 | – | 36 | -8.5 | – | – | – | – | – | – | – | – | 87 | 95
HADGTFSSDYSTILDNLAAKDFINWLIQTKITD [GIP-GLP-2 co-agonist 20] | – | – | – | – | – | – | – | – | 1.2 | 80 | 1 | -8.92 | 0.59 | 98 | 6.6 | -9.23 | – | –
HADGTFISEYSTILDNLAARDFINWLIQTKITD [GIP-GLP-2 co-agonist 15] | 6.7 | – | 5.6 | -8.18 | 3.2 | – | 36 | -8.5 | – | – | – | – | – | – | – | – | 104 | 92
HADGTFISDYSTILDNLAARDFINWLIQTKGKK [GIP-GLP-2 co-agonist 19] | – | – | – | – | 0.25 | – | – | -9.6 | – | – | – | – | – | – | – | – | 91 | 93
HADGTFSSDYSTILDNLAARDFINWLIQTKITD [GIP-GLP-2 co-agonist 13] | 11 | – | 9.2 | -7.95 | 12 | – | 135 | -7.92 | – | – | – | – | – | – | – | – | 99 | 91
HADGTFIDDYSTILDNLAARDFINWLIQTKITD [GIP-GLP-2 co-agonist 14] | 11 | – | 9.2 | -7.97 | 2.4 | – | 27 | -8.63 | – | – | – | – | – | – | – | – | 90 | 94
HAEGTFISDMNTILDNLAARDFINWLIQTKITD [GIP-GLP-2 co-agonist 6] | 60 | – | 50 | -7.22 | 172 | – | 1930 | -6.77 | – | – | – | – | – | – | – | – | 70 | 83
HADGTFISDYSTILDNLAARDFINWLIQTKGTD [GIP-GLP-2 co-agonist 16] | 82 | – | 68 | -7.06 | 0.6 | – | 6.7 | -9.22 | – | – | – | – | – | – | – | – | 74 | 95
HADGTFISDYSTILDNLAARDFINWLIQTKITD [GIP-GLP-2 co-agonist 3] | 21 | – | 18 | -7.67 | 0.11 | – | 1.2 | -9.97 | – | – | – | – | – | – | – | – | 100 | 100
HADGTFISDYSTILDNLAARDFINWLIQTKITK [GIP-GLP-2 co-agonist 18] | 5.3 | – | 4.4 | -8.28 | 0.66 | – | 7.4 | -9.18 | – | – | – | – | – | – | – | – | 94 | 89
HAEGTFISDYSTILDNLAARDFINWLIQTKITD [GIP-GLP-2 co-agonist 1] | 98 | 93 | 82 | -7.01 | 30 | 100 | 337 | -7.53 | – | – | – | – | – | – | – | – | – | –
HAEGSFISDYSTILDNLAARDFINWLIQTKITD [GIP-GLP-2 co-agonist 4] | 25 | – | 21 | -7.59 | 38 | – | 427 | -7.42 | – | – | – | – | – | – | – | – | 90 | 83
HAEGTFISDYSIAMDKLAARDFINWLIQTKITD [GIP-GLP-2 co-agonist 7] | 351 | – | 293 | -6.45 | 26 | – | 292 | -7.59 | – | – | – | – | – | – | – | – | 78 | 92
HAEGTFISDYSTILDNIHQQDFINWLIQTKITD [GIP-GLP-2 co-agonist 8] | – | – | – | > -5 | 5.9 | – | 66 | -8.23 | – | – | – | – | – | – | – | – | 22 | 100
HAEGTFISDYSTILDNLAARDFVNWLLAQKITD [GIP-GLP-2 co-agonist 9] | 123 | – | 103 | -6.91 | 3.2 | – | 36 | -8.5 | – | – | – | – | – | – | – | – | 67 | 100
HAEGTFISDYSTILDNLAARDFINWLIQTKGKK [GIP-GLP-2 co-agonist 10] | 22 | – | 18 | -7.66 | 5.4 | – | 61 | -8.27 | – | – | – | – | – | – | – | – | 77 | 100
HADGSFSDEMNTILDNLAARDFINWLIQTKITD (ligand) [human native GLP-2] | – | – | – | – | 56 | – | – | -7.25 | – | – | – | – | 56 | 22 | – | -7.25 | – | 22
HAEGTFSDEYSTILDNLAARDFINWLIQTKITD [GIP-GLP-2 co-agonist 5] | 6.2 | – | 5.2 | -8.21 | 456 | – | 5120 | -6.34 | – | – | – | – | – | – | – | – | 91 | 75
